Consider one molecule from patent publication CN114349861A (HUAOTSU BALL; JIANGSU INST OF TARGET BIOMEDICINE CO LTD, dated 2022).

The target of this test is T1, 人PD1蛋白 (human, UniProt Q15116 25-170).
T1 construct: extracellular domain; also called PD1(人); PD1(胞外段)蛋白
The experiment in a line: non-competitive ELISA at three PD1 coating concentrations; Beatty formula, mean of three K values.

T1 sequence (Q15116 25-170): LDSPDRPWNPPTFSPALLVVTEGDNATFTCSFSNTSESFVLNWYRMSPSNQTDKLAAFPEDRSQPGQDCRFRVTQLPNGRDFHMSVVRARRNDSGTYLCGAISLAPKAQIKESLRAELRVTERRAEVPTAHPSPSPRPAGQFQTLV

B1: 抗PD1-VHH1 (VHH)
VHH: QVQLVESGGGSVQAGGSLRLSCAASGYASSSYSMGWFRQAPGKEREAVAGVNRDGSTRYADSVKGRFTISKDNAKNTLYLQMNSLKPEDTAMYYCAADRGWLPRRPDYWGQGTQVTVSS
notes: Camel (dromedary) VHH selected from a T7 phage library; The soluble protein was expressed from pET32a in E. coli BL21(DE3) and purified on Ni-IDA; The specificity ELISA detected it with an anti-HA antibody; also called 抗PD1Nb1; antiPD1Nb
Take B1: the Ka came to 8.2e+06 M⁻¹.
